The target in experiment [1] is T1, human IGF1R (human, UniProt P08069 31-932, limits assumed).
T1 construct: also called hIGF1R; h-IGF1R
As to the kind of experiment: SPR (Biacore T200), hIGF1R immobilised on CM4 chip, analyte injected at 20 nM, 25 C. The protocol: (§1) Surface Plasmon Resonance (SPR) analysis was performed to determine the affinity of the IGF1R3H5-IDS construct towards human IGF1R (hIGR1R). The SPR analysis was performed on a Biacore T200 (GE Healthcare) under the following conditions. hIGF1R was immobilized on a CM4 chip at high density (FC1—ethanoloamine blocked; FC3—2,500 RUs of hIGF1R). A variable concentration of the flowing molecule was used, with contact and dissociations times of 300 and 400 s, respectively. The assay was performed at 25° C. with a flow rate of 40 μL/min and the chip was regenerated in 10 mM glycine (pH 5.5). […] In summary, the IGF1R3H5-IDS construct retains its ability to bind to the target receptor IGF1R.
For orientation: SPR reads the build-up and loss of mass on a sensor chip optically.

Experiment [2] has as its target T1, human IGF1R. The experiment can be described thus: SPR, Biacore T200, hIGF1R immobilised on CM4 chip, analyte at 50 nM (FIG. 5D); the filing calls this value inaccurate because of matrix effects; analyte at 50 nM (FIG. 5D); matrix effects, called inaccurate. On the procedure: as §1
Experiment [3] has as its target T1, human IGF1R. The experiment can be described thus: SPR, Biacore T200, hIGF1R immobilised on CM4 chip, analyte at 2.5 nM (FIG. 5C); analyte at 2.5 nM (FIG. 5C). On the procedure: as §1
For experiment [4], the target named is T1, human IGF1R. As to the kind of experiment: SPR (Biacore T200), hIGF1R immobilised on CM4 chip, analyte injected at 50 nM, 25 C; text calls the affinity at this concentration inaccurate (matrix effects). The protocol:
as §1

The target in experiment [5] is T1, human IGF1R. The experiment can be described thus: SPR (Biacore T200), hIGF1R immobilised on CM4 chip, analyte injected at 2.5 nM, 25 C. The protocol: as §1
Experiment [6] addresses T1, human IGF1R. As to the kind of experiment: SPR (Biacore T200), hIGF1R immobilised on CM4 chip, analyte injected at 50 nM, 25 C; text says matrix effects lower the on-rate at this concentration. On the procedure:
as §1

In experiment [7] the target is T1, human IGF1R. The experiment can be described thus: SPR, Biacore T200, hIGF1R immobilised on CM4 chip; parental VHH, not the IDS fusion.

T1 sequence (P08069 31-932 limits assumed): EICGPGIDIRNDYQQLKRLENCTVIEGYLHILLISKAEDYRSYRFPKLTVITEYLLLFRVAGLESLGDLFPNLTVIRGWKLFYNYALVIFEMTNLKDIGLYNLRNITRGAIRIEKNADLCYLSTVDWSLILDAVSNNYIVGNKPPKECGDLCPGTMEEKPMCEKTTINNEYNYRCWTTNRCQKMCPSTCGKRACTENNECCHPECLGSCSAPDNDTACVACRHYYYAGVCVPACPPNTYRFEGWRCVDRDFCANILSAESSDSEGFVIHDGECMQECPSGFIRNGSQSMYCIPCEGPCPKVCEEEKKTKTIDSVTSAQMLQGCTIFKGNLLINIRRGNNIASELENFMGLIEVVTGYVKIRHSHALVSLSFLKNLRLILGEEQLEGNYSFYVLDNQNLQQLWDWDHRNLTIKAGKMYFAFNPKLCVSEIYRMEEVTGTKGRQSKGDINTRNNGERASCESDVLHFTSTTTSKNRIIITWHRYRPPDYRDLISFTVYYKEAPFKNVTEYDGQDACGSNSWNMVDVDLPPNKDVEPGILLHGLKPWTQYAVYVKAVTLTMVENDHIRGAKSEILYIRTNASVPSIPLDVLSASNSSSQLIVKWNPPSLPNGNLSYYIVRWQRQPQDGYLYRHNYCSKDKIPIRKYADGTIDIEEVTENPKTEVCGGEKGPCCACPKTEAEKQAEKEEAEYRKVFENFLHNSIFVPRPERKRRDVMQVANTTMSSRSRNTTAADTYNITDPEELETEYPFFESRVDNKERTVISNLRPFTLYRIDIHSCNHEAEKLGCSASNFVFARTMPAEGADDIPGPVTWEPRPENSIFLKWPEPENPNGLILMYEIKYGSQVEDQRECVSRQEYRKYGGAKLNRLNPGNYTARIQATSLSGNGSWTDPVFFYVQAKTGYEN

B1: IGF1R3H5-IDS (uncapped) (other)
chain: EVQLVESGGGLVQPGGSLRLSCAASEYPSNFYAMSWFRQAPGKEREFVSGVSRDGLTTLYADSVKGRFTISRDNSKNTLYLQMNSLRAEDTAVYYCAIVITGVWNKVDVNSRSYHYWGQGTLVTVSSGGGGSGGGGSGGGGSGGGGSGGGGSSETQANSTTDALNVLLIIVDDLRPSLGCYGDKLVRSPNIDQLASHSLLFQNAFAQQAVCAPSRVSFLTGRRPDTTRLYDFNSYWRVHAGNFSTIPQYFKENGYVTMSVGKVFHPGISSNHTDDSPYSWSFPPYHPSSEKYENTKTCRGPDGELHANLLCPVDVLDVPEGTLPDKQSTEQAIQLLEKMKTSASPFFLAVGYHKPHIPFRYPKEFQKLYPLENITLAPDPEVPDGLPPVAYNPWMDIRQREDVQALNISVPYGPIPVDFQRKIRQSYFASVSYLDTQVGRLLSALDDLQLANSTIIAFTSDHGWALGEHGEWAKYSNFDVATHVPLIFYVPGRTASLPEAGEKLFPYLDPFDSASQLMEPGRQSMDLVELVSLFPTLAGLAGLQVPPRCPVPSFHVELCREGKNLLKHFRFRDLEEDPYLPGNPRELIAYSQYPRPSDIPQWNSDKPSLKDIKIMGYSIRTIDYRYTVWVGFNPDEFLANFSDIHAGELYFVDSDPLQDHNMYNDSQGGDLFQLLMPHHHHHHHHWSHPQFEK
modifications: phosphorylated N-glycans; Man-6-P uncapped by Jack Bean alpha-mannosidase (JBMan) treatment
notes: Single-chain fusion of a VHH with an enzyme, made in Yarrowia lipolytica; the two differ only in N-glycan uncapping; also called uncapped IGF1R3H5-IDS; P454
For B1, in experiment [1], the Kd (in general, the constant that tells how readily two partners part at equilibrium) came out at 40.2 nM; the koff (in general, a measure of how fast the partners let go of each other) stood at 0.00289 s⁻¹; the kon – broadly, the rate constant with which the complex forms – worked out at 71900 M⁻¹ s⁻¹.

B2: IGF1R3H5-IDS (capped) (other)
chain: B1 chain
modifications: phosphorylated N-glycans; Man-6-P still capped (no uncapping)
notes: also called capped IGF1R3H5-IDS
Take B2: the Kd in experiment [1] is 46.1 nM; in experiment [2], ~70 nM; in experiment [3], ~7 nM; in experiment [4], 69.8 nM; in experiment [5], 7.42 nM. Besides, the koff in experiment [1] came out at 0.00295 s⁻¹; in experiment [5], 0.00288 s⁻¹; in experiment [6], 0.0029 s⁻¹. Moreover, the kon in experiment [1] was found to be 64000 M⁻¹ s⁻¹; in experiment [5], 388000 M⁻¹ s⁻¹; in experiment [6], 42000 M⁻¹ s⁻¹.

B3: IGF1R3H5 VHH (VHH)
VHH: EVQLVESGGGLVQPGGSLRLSCAASEYPSNFYAMSWFRQAPGKEREFVSGVSRDGLTTLYADSVKGRFTISRDNSKNTLYLQMNSLRAEDTAVYYCAIVITGVWNKVDVNSRSYHYWGQGTLVTVSS
notes: also called parental VHH IGF1R3H5
For B3, in experiment [7], the Kd was 7.5 nM, the koff was found to be 0.00251 s⁻¹ and the kon was determined as 334000 M⁻¹ s⁻¹.
